Test results taken from US20160122430A1 (AbbVie / Abbott, published 2016).
Positions count from the first letter of the chain named. Names and notes keep the numbering of the source.

B1: Hu34C3 S55E (antibody, V domains shown)
VH: EVQLVESGGGLVQPGGSLRLSCAASGFTFSDYYMAWVRQAPGKGLEWVASINYDGESTYYVDSVKGRFTISRDNAKNSLYLQMNSLRAEDTAVYYCARDRGYYFDYWGQGTTVTVSS
VL: DVVMTQTPLSLSVTPGQPASISCRSSQSLVHSNGNTYLHWYLQKPGQSPQLLIYKVSNRFSGVPDRFSGSGSGTDFTLKISRVEAEDVGVYFCSQSTHVPPFTFGGGTKVEIK
B2: Hu34C3 N30L (antibody, V domains shown)
VH: B1 VH with E56S
VL: B1 VL with N35L
B3: Hu34C3 S55E/N30L (antibody, V domains shown)
VH: B1 VH
VL: B1 VL with N35L
notes: Double mutant of Hu34C3
B4: HuCS1.34C3 (antibody, human IgG1, kappa, V domains shown)
VH: B1 VH with E56S
VL: DVVMTQTPLSLSVTPGQPASISCRSSQSLVHSNGNTYLHWYLQKPGQSPQLLIYKVSNRFSGVPDRFSGSGSGTDFTLKISRVEAEDVGVYFCSQSTHVPPFTFGGGTKVEIKR
notes: Humanized IgG1; also called Hu34C3
B5: elotuzumab (antibody, IgG1, V domains shown)
VH: EVQLVESGGGLVQPGGSLRLSCAASGFDFSRYWMSWVRQAPGKGLEWIGEINPDSSTINYAPSLKDKFIISRDNAKNSLYLQMNSLRAEDTAVYYCARPDGNYWYFDVWGQGTLVTVSS
VL: DIQMTQSPSSLSASVGDRVTITCKASQDVGIAVAWYQQKPGKVPKLLIYWASTRHTGVPDRFSGSGSGTDFTLTISSLQPEDVATYYCQQYSSYPYTFGQGTKVEIKR
notes: also called HuLuc63
B6: HuCS1.27A12 (antibody, V domains shown)
VH: B1 VH with S50E, E56S, Y102F
VL: B1 VL with S32N, F102Y
notes: Humanized antibody; It has a human Fc (detected with anti-human Fc); also called Hu27A12
B7: HuCS1.31D2.2 (antibody, V domains shown)
VH: B1 VH with S50D, E56G, V61L, V64L, G66S, T112L
VL: B1 VL with T7S, S12P, Q17E
notes: Humanized antibody; It has a human Fc (detected with anti-human Fc); also called Hu31D2
B8: CS1.AD159.27A12 (antibody, V domains shown)
VH: EVKLVESEGGLVQPGSSMKLSCTASGFTFSDYYMAWVRQVPEKGLEWVAEINYDGSSTYYLDSLKSRFIISRDNAKNILYLQMSNLKSEDTATYYCARDRGFYFDYWGQGTTLTVSS
VL: B1 VL with S12P, T14S, P15L, Q17D, P18Q, S32N, Q50K, V88L, F102Y, V110L
notes: Murine hybridoma antibody; also called Mu27A12
B9: CS1.AD159.31D2 (antibody, V domains shown)
VH: B8 VH with E50D, S56G, Y80C, N85S, F102Y
VL: B1 VL with S12P, T14S, P15L, Q17D, P18Q, Q50K, V88L, V110L
notes: Murine hybridoma antibody; also called Mu31D2
B10: CS1.AD159.12D10 (antibody, V domains shown)
VH: B8 VH with Y33F, E50S, S56N, Y60F, N85S
VL: DVVMTQTPLSLPVSLGDQASISCRFSQSLVHRNGNTYLHWYLQKPGQSPKLLIYKVSNRFSGVPDRFSGSGSGTDFTLKISRVEAEDLGVYFCSQSTHVRPYTFGGGTKLEIR
notes: Murine hybridoma antibody; also called Mu12D10
B11: CS1.AD159.14C11 (antibody, V domains shown)
VH: B8 VH with E50S, N85G, Y95S
VL: B10 VL with F25S, R100P, R113K
notes: Murine hybridoma antibody; also called Mu14C11
B12: CS1.AD159.34C3 (antibody, V domains shown)
VH: B8 VH with E50S, Y80F, S84N, N85S, F102Y
VL: B10 VL with F25S, R32S, R100P, Y102F, R113K
notes: Murine hybridoma antibody; also called Mu34C3

Molecular target: T1, human CS1 (HuCS1) (human, UniProt Q9NQ25 23-335)
T1 construct: also called FL-HuCS1; SLAMF7
Assay: FACS, binding relative to Hu34C3; cells not given

| % Binding | Binder |
| --- | --- |
| 125% | B1 |
| 128% | B2 |
| 134% | B3 |

Molecular target: T1, human CS1 (HuCS1)
Assay: flow cytometry on 293s cells transfected with human CS1

| concentration at which 80% of maximal binding occurred | Binder |
| --- | --- |
| 10 µg/mL | B4 |

Molecular target: T1, human CS1 (HuCS1)
Assay: flow cytometry on L-363 cells, PE goat anti-human Fc detection
Procedure: (§1) L-363 cells were incubated with different amounts of test antibody on ice for 30 min. Cells were washed three times with PBS+1% FBS. A PE-conjugated goat anti-human Fc antibody was added to the cells and incubated for 30 min on ice. Cells were washed three times with PBS+1% FBS, and binding was quantitated by flow cytometry.

| EC50 | Binder |
| --- | --- |
| 35.9 nM | B5 |
| 4.7 nM | B6 |
| 3.1 nM | B7 |
| 2.5 nM | B4 |

Molecular target: T1, human CS1 (HuCS1)
Assay: flow cytometry on L-363 cells; GeoMean (max) relative to elotuzumab
Procedure: as §1

| % of Elotuzumab | Binder |
| --- | --- |
| 100% | B5 |
| 142% | B6 |
| 160% | B7 |
| 249% | B4 |

Molecular target: T1, human CS1 (HuCS1)
Assay: flow cytometry on L-363 cells; maximum fluorescent value at any tested concentration
Procedure: as §1

| GeoMean (max) | Binder |
| --- | --- |
| 17.5 | B5 |
| 24.8 | B6 |
| 28 | B7 |
| 43.5 | B4 |

Molecular target: T2, human CS1 ECD-huIgG1 (human, UniProt Q9NQ25 23-226)
T2 construct: Its preparation is not described; also called HuCS1Fc; HuCS1-Fc; not shown: constant region of human IgG1 (huIgG1 Fc)
Assay: hybridoma screen of Example 1 (ELISA on ECD-huIgG1 fusions, flow cytometry on OPM-2 cells); member named in Table 5
Procedure: Specificity of antibodies secreted by hybridomas was determined by binding to human CS1 ECD-huIgG1 and CmCS1 ECD-huIgG1, and not to negative control CLL1 ECD-huIgG1 by ELISA. […] Hybridoma supernatants were allowed to bind to the proteins and detected with an HRP conjugated donkey anti mouse IgG (H+L) antibody. Hybridomas that recognized both human and cynomolgus but not CLL fusion proteins were further tested for binding to the huCS1 molecule on an endogenously expressing OPM-2 cells using standard flow cytometry protocols. Briefly, OPM-2 cells were incubated with hybridoma supernatants for 30 minutes on ice. After extensive washing, cells were incubated with phycoerythrin conjugated goat anti mouse IgG specific antibodies for 30 minutes on ice. Cells were washed again and analyzed on a Becton Dickinson FACSCalibur for the presence of cell surface bound antibodies.

| binding result | Binder |
| --- | --- |
| binds | B8 |
| binds | B9 |
| binds | B10 |
| binds | B11 |
| binds | B12 |
